This passage reports Km results from patent US9839701B2, “Aromatic amino acid derivative and positron emission topography (PET) probe using the same” (OSAKA UNIVERSITY, priority 2013, dated 2017).

Substrate in the data set: N[C@@H](Cc1ccc(O)cc1)C(=O)O
The experiment in a line: Promoting effect on amino acid efflux from human LAT2 stably expressing cell line. The class given is cell-based. The note with it: other: Km for amino acid efflux, Table 7; 37.0 °C. How it is done:
In the same manner as in Example 3, the human LAT1 stably expressing cell line and the human LAT2 stably expressing cell line were seeded on separate collagen-coated 24-well plates, and after 48 hours, the cells were washed with an uptake buffer prewarmed at 37° C. An uptake buffer supplemented with 1 μM of [^14C]L-leucine or [^14C]L-alanine was added to each well, and [^14C]L-leucine or [^14C]L-alanine uptake by the cells was allowed to proceed at 37° C. for 10 minutes. The cells were washed with an uptake buffer prewarmed at 37° C., treated with the compound of Example 1 or the positive control FAMT at 1, 2, 3, 5, 10, 20, 50, 100 or 200 μM, and incubated at 37° C. for 1 minute, and the supernatants were collected. The radioactivity in each supernatant was measured as the radioactivity of the amino acid released from the cells. Subsequently, 500 μL of 0.1 M NaOH was added to each well for cell lysis, 20 μL of the lysate was used for the measurement of the protein concentration, and the remaining lysate was used for the measurement of the residual radioactivity in the cells. The sum of the residual radioactivity and the released radioactivity in each experiment was checked to confirm that there was no great difference in the total radioactivity incorporated into the cells at the preloading among the experiments. […]

B1: human LAT2 (Homo sapiens) (protein)
chain: MEEGARHRNNTEKKHPGGGESDASPEAGSGGGGVALKKEIGLVSACGIIVGNIIGSGIFVSPKGVLENAGSVGLALIVWIVTGFITVVGALCYAELGVTIPKSGGDYSYVKDIFGGLAGFLRLWIAVLVIYPTNQAVIALTFSNYVLQPLFPTCFPPESGLRLLAAICLLLLTWVNCSSVRWATRVQDIFTAGKLLALALIIIMGIVQICKGEYFWLEPKNAFENFQEPDIGLVALAFLQGSFAYGGWNFLNYVTEELVDPYKNLPRAIFISIPLVTFVYVFANVAYVTAMSPQELLASNAVAVTFGEKLLGVMAWIMPISVALSTFGGVNGSLFTSSRLFFAGAREGHLPSVLAMIHVKRCTPIPALLFTCISTLLMLVTSDMYTLINYVGFINYLFYGVTVAGQIVLRWKKPDIPRPIKINLLFPIIYLLFWAFLLVFSLWSEPVVCGIGLAIMLTGVPVYFLGVYWQHKPKCFSDFIELLTLVSQKMCVVVYPEVERGSGTEEANEDMEEQQQPMYQPTPTKDKDVAGQPQP
notes: expressed in transfected cells
B1: the Km (as a rule, the substrate concentration at which the rate is half of its maximum) amounted to 32.7 µM.
